One molecule from patent publication US20070022484A1 (published 2007) can be followed below.

The assay concerns the target C-terminal sRL91 (N-terminal SH2 domain SH2n of p85 subunit of bovine phosphatidylinositol 3-kinase fused … (bovine (SH2n part))). The experiment in a line: cell-based or functional assay.

Chain of C-terminal sRL91 (N-terminal SH2 domain SH2n of p85 subunit of bovine phosphatidylinositol 3-kinase fused … (bovine (SH2n part))) (chain, as listed by the source limits assumed): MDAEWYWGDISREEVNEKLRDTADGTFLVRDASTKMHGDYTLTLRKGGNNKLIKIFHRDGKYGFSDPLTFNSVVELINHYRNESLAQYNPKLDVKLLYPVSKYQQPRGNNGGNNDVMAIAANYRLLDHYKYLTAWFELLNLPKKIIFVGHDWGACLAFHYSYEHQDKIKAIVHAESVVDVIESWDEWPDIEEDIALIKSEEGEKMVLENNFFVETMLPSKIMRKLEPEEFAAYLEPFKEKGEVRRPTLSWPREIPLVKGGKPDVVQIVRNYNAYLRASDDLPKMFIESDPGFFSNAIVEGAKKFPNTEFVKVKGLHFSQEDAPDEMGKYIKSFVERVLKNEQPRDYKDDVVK

B1: N-terminal sRL91 (N-split Renilla luciferase hRLn, split between Ser91 and Tyr92, fused through a linker to Y941 peptide, with Myc epitope) (other, not shown: small tags and cut ends)
chain: MTSKVYDPEQRKRMITGPQWWARCKQMNVLDSFINYYDSEKHAENAVIFLHGNAASSYLWRHVVPHIEPVARCIIPDLIGMGKSGKSGNGSCLSLASNNGNGRNGASLETEEAYMKMDLGPG
modifications: the 941-tyrosine residue of the Y941 peptide is phosphorylated by the insulin receptor upon insulin stimulation
Consider B1, for which the “luminescence activity with 10^-7 M insulin against its absence (split Renilla luciferase complementation, CHO-HIR cells expressing sRL91)” value is 25 fold.
